Reference: the supplement of paper PMC10567573

B1: FAM189A2 (parent)
chain: NLAGFILGCQGAQFVSSVPRCDLV
B2: PPP2R2B (parent)
chain: PSNRSFFSEIISSISDVKFSHSGR

Variants of: B1
Test: protein stability index of a GFP-peptide fusion (GPS, HEK-293T) (PSI 1-6); higher = more stable
Details: c terminus: a fixed tail appended
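Further: lentivirally expressed fusions sorted by FACS into six bins by GFP to DsRed ratio, PSI derived from sequencing read proportions per bin multiplied by bin number.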

Protein stability index, by site and new letter:
L2: H 1.7, G 1.23, C 1.31, E 2.13, D 3.18, F 2.65
N1: P 2.63, Q 1.85, Y 3.31, C 2.92, A 3.77, R 2.73, L 2.75, W 3.42, G 1.51, K 2.77, H 2.03

Variants of: B2
Test: as above
Details: c terminus: a fixed tail appended

Protein stability index, by site and new letter:
S22: P 2.38, Y 2.2, D 2.79, F 2.19, V 2.06, M 2.27, W 1.9, E 2.37, G 2.57, R 2.71, H 2.48, L 2.48, Q 2.43, N 2.58, K 2.64, C 1.89, A 2.4, I 2.11, T 2.42
I10: S 3.09, C 2.91, M 2.62, W 2.33, R 2.79, P 3.44, L 1.79, N 3.09, V 2.83, A 3.33, E 3.64, K 3.11, Q 3.06, F 2.43, D 3.13, G 3.39, T 3.37, Y 3.01, H 2.98
K18: S 2.61, M 2.02, H 2.04, N 2.36, C 1.94, L 2.35, Q 2.47, W 2.38, A 2.15, P 2.23, Y 1.97, R 2.55, E 2.35, D 2.59, G 2.66, I 2.33, V 2.09, F 2.17, T 2.31
S15: N 2.77, H 2.39, M 2.08, P 2.85, Y 2.05, I 2.26, Q 2.31, K 2.35, C 1.81, E 2.93, R 2.25, A 1.73, T 2.05, V 2.27, G 2.65, W 2.34, F 1.79, L 2.13, D 2.83
S12: P 2.65, Q 2.33, N 2.5, V 1.82, F 1.72, Y 2.3, E 2.57, M 2.04, W 1.98, A 2.23, K 2.49, D 2.54, C 2.06, H 2.32, R 2.31, T 2.28, G 2.54, I 3.11, L 1.69
D16: A 2.34, L 2.05, K 2.13, I 1.74, E 2.28, Y 1.61, N 2.57, T 2.28, R 2.15, C 1.92, W 1.99, V 2.17, H 2.19, G 2.29, M 2.02, Q 2.42, F 1.66, S 1.92, P 2.56
G23: P 2.74, N 2.79, V 1.66, Q 2.24, K 2.49, L 2.08, H 2.27, W 2.09, F 2.09, Y 2.27, M 2.25, A 2.31, I 1.88, D 2.72, R 2.54, C 2.36, S 2.33, T 2.14, E 2.7
I14: K 3.17, G 3.26, R 3.05, L 2.54, V 2.81, S 3.19, Y 2.19, E 4, W 2.4, A 2.79, F 2.17, T 3.09, M 2.6, D 3.04, H 2.79, P 3.05, Q 3.18, C 2.46, N 3.05
R24: S 3.12, L 1.75, Y 3.23, K 2.65, N 2.81, V 1.59, T 2.33, I 1.61, H 1.94, P 2.31, F 1.65, M 1.97, E 2.94, G 2.21, A 2.36, Q 2.39, D 3.18, W 1.98, C 1.87
V17: Q 2.81, E 3.05, T 2.72, G 2.53, N 2.9, D 3.18, W 2.49, S 2.5, R 2.31, Y 2.29, C 2.4, F 2.18, M 2.53, A 2.27, I 2.53, P 2.63, H 3.21, K 2.73, L 2.75
I11: Q 3.04, F 4.67, C 4.01, A 3.34, D 3.46, R 2.97, H 3.46, Y 3.4, P 3.57, V 3.26, K 3, L 2.3, S 3.2, E 3.59, M 2.69, W 2.59, G 3.36, N 3.21, T 3.19
F19: Y 2.57, V 2.5, E 3.58, K 3.02, P 3, N 3.15, Q 2.79, D 3.52, M 2.88, C 3.03, W 1.97, I 2.43, R 2.99, L 2.93, A 3.07, T 3.07, H 3.02, S 3.3, G 2.86
S13: H 2.67, C 2.19, L 2.45, N 2.79, W 2.34, K 2.19, F 1.73, T 2.64, V 1.99, Q 2.82, Y 1.65, G 2.37, A 1.87, D 2.58, M 1.76, I 2.5, R 2.63, E 3.26, P 2.99
S20: W 2.38, F 2.02, N 2.27, H 2.18, Y 1.75, E 2.94, Q 2.45, V 2.33, C 2.12, G 2.26, T 2.78, D 2.88, I 2.22, L 2.41, A 2.39, M 1.95, R 1.94, K 2.7, P 2.48
E9: Y 1.95, L 2.58, R 2.2, N 2.36, S 2.26, Q 2.31, W 1.91, C 2.03, V 2.15, H 1.99, G 2.64, P 2.45, D 2.44, K 2.23, A 2.12, T 2.17, M 1.47, F 1.63, I 3.63
H21: Q 2.26, D 2.54, Y 1.97, G 2.39, L 2.03, P 2.67, E 2.87, M 2.41, S 1.93, I 2.13, C 2.22, R 3.27, F 1.88, N 2.48, K 2.85, A 2.7, T 2.11, V 2.04, W 2.31
S8: I 2.84, W 1.98, H 2.31, Y 1.91, R 2.33, Q 2.33, K 2.36, P 2.69, M 2.43, V 1.52, N 2.44, T 2.62, L 2.04
